System: MS2 coat protein
Test: apparent KD of MS2 coat protein; designed switch direction (-1 OFF switch, 1 ON switch): -1; higher = weaker reporter binding
Summary of the method: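 SNAP-549-labelled MS2 coat protein was titrated, doubling from 0.7 or 1.5 nM to 3 µM, over designed RNA switches transcribed on Illumina chips by stalled E. coli RNA polymerase. Runs were done without input, with 200 uM small-molecule ligand, or with an oligonucleotide input. Apparent KD is the per-design median over clusters of curve-fitted normalised fluorescence.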

[1] = Eterna round: R95, input ligand: FMN 200 uM
[2] = Eterna round: R95, input ligand: microRNA oligo, concentration not stated
[3] = Eterna round: R95, input ligand: none
[4] = input ligand: microRNA oligo, concentration not stated

Sequence	apparent KD of MS2 coat protein [1]	apparent KD of MS2 coat protein [2]	apparent KD of MS2 coat protein [3]	apparent KD of MS2 coat protein (input ligand: FMN 200 uM)	apparent KD of MS2 coat protein (input ligand: none)	apparent KD of MS2 coat protein [4]
CCAUCGUGUGUGAGGAUAUGCUGGUCCUUGGAUCAGCAGAAGGCACAUGAGGAUCACCCAUGUGAAAACGGUGG [Mat - Exclusion 4 - JL Mod - D86] (puzzle: Brourd's mod of Exclusion 4)	67 nM	22.3 nM	23.9 nM			
GUGUAACAUGAGGAUCACCCAUGUCAGGAUAUGCGAAUUUCAUCAAAAGAUGAAAUUUGCAGAAGGGACUGUAC [Omei Ex1 A24] (Eterna round: R97, puzzle: Exclusion 1)				99.2 nM	60.9 nM	
GGCAUGUAAGGAUAUGCCACCGAGUGCUUUGCGCUCGGUAAGCAGAAGGUACAUGAGGAUCACCCAUGUGAUAA [jl-ex4-4.55 ViennaUCT mod] (Eterna round: R97, puzzle: Exclusion 4)				132 nM	660 nM	
UCAAAAUAGUCAGGAUAUGCAGAUUCAGCGUCCGCAGAAGGGACAGUGGGCUGGUCCGACACAUGAGGAUCACCCAUGUAAAAG [Teerreanor] (Eterna round: R96, puzzle: Exclusion NG 1)				260 nM	109 nM	140 nM
CUGAGUAGUCAGGAUAUGUGGUACAAAAGUACAGCAGAAGGGAUUACAUGAGGAUCACCCAUGUUUACUUCAUG [Omei Ex6 B16] (Eterna round: R97, puzzle: Exclusion 6)				57.9 nM	32.6 nM	
UUUGCAAGCUUAAGAUCCCACAUGAGGAUCACCCAUGUUGCUGCCGUGAGGUAGCUUUUAACUUAUGCUCGUCUUAU [JL TOV1 3.46] (Eterna round: R97, puzzle: Sensor, turn-off variant 1)				95.7 nM	115 nM	
GGAUUUCCUGAGGAUAUUGCAUCACCCGAUUUAUAAGAAGGCAGAACAUGAGGAUCACCCAUGUGGGUCUCCAG [Bingo-Bango-24] (Eterna round: R97, puzzle: Exclusion 6)				22.9 nM	17.9 nM	
GAAAAGGAAGGAUAUACGAAAAAAAAGGGUAGAAAAAAAACACAUGAGGAUCACCCAUGUAGAAGGUCCAAAAG [salish99_ex2_r3_092] (puzzle: Exclusion 2)	151 nM	43.5 nM	54.5 nM			
CAAUACAAGCGAAGAUCCUACAUGAGGAUCACCCAUGUGCUCGUCUUAAAAGGUACUGAGACGAAAGUCUCGGUACC [Mat - Sensor, turn-off var - Eli Mod - D99] (Eterna round: R97, puzzle: Sensor, turn-off variant 1)				280 nM	367 nM	
AUCUCUCGUGUUAGGAUAUCCAGUUAGUUCGUGCGGGAGAAGGAACAUGAGGAUCACCCAUGUAAACAAAUCGC [BmEX4 B.21] (Eterna round: R97, puzzle: Brourd's mod of Exclusion 4)				52.1 nM	18.5 nM	
UAUGUUUUAGGAUAUUGUACUGCUGACAUGAGGAUCACCCAUGUAUGCUAACUCGGCCGUCGAGAAGGAGAAUAUG [BotMod 30 - Jieux - Exclusion 5] (Eterna round: R97, puzzle: Exclusion 5)				43.6 nM	63.8 nM	
UUGUACCGGUGAGGAUAUUUUUAAUAGAGCUUUAUGAUAUACAUGAGGAUCACCCAUGUUACGUUAAAGAAGGCAUCGGAUUAU [JL JR Sub091 mod 4] (Eterna round: R96, puzzle: Exclusion NG 2)				18.6 nM	21.6 nM	13.9 nM
UUCACAUGGACAUGAGAUCACAUGAGGAUCACCCAUGUGAAUAACAAGCUUUUUGUUCGUCUUAUGUCCAAUAAUAU [Stov1/14-D2] (Eterna round: R97, puzzle: Sensor, turn-off variant 1)				13.7 nM	10.5 nM	
CCCUCACAUGAGGAUCACCCAUGUCAGGAUAUUCGAGGCGCAAAUGCGCCAAAUGCAGGAAGAAGGGACGUGCC [Isqubemaor] (puzzle: Exclusion 1)		14 nM				

Reference: the supplement of paper PMC9170038
